Measured values taken from article PMC2928021.

Target: anaphase-promoting complex/cyclosome (APC/C), phosphorylated, of mitotic cells (human (endogenous in U2OS)) (UniProt P30260)
Test: co-sedimentation

Chain of UniProt P30260 (P30260 whole entry, looked up, one chain of several): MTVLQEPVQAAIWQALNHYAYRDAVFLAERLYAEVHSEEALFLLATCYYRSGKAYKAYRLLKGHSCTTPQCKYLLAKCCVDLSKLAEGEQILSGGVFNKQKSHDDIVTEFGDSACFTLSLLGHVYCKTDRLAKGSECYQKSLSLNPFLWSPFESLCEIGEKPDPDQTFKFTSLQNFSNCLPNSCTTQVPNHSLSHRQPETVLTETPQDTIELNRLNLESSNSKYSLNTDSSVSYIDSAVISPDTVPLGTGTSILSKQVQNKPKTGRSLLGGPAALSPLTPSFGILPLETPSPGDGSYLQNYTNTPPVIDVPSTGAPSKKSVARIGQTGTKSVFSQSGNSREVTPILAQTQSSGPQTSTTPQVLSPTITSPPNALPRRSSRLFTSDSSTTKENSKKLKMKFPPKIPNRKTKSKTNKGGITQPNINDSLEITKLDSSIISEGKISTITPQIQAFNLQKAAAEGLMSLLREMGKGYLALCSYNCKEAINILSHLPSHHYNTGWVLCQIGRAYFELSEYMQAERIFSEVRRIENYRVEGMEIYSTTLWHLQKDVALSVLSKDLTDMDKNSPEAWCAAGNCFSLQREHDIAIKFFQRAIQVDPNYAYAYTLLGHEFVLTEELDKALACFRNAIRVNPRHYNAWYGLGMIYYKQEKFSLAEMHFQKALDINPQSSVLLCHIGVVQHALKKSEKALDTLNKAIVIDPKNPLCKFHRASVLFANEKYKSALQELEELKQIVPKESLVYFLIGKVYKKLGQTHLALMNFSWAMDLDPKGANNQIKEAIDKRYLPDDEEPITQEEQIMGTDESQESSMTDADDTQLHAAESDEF

percent comigrating: 40%
Substance: cyclin B1–N–Cks1–Venus (from UniProt P14635;P61024)
